± gives the standard deviation of the averaged measurements.
B1: library; a variant is named by its letters at N, in order (parent)
chain: GCUGUCACCGGUGCUUGGUACGUUAUAUUCAGCCGGUCUGAUGAGUCUNNNNNNAGACGAAACAGC

Legend:
(6R,S)-folinic acid [1] = variants of: B1; assay: normalized RNA/DNA level without ligand (relative to sTRSVctl = 100) (log10 (% of sTRSVctl)); HEK293T overexpressing SLC46A1; higher = less ribozyme self-cleavage, higher mRNA level; settings: without (6R,S)-folinic acid; ligand present: no
Summary of the method: (§1)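 HEK293T cells received ligand, where used, 1 h before being transfected with 4 µg per 6-well well of library plasmids encoding reporter-linked ribozyme switches. After 72 h, RNA was extracted with EDTA and sequenced. RNA level was derived from RNA reads per DNA read, normalized to a spiked-in non-cleaving sequence or the top sequences, then scaled and log-transformed. Values were ×100 then log10, the top set was 25 sequences, and the minimum was 100 DNA reads.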

(6R,S)-folinic acid [2] = variants of: B1; assay: normalized RNA/DNA level with ligand (relative to sTRSVctl = 100) (log10 (% of sTRSVctl)); HEK293T overexpressing SLC46A1; ligand concentration (+) RNA-Seq: 6 mM; higher = less ribozyme self-cleavage, higher mRNA level; settings: with (6R,S)-folinic acid; ligand present: yes
Summary of the method: as §1

Variant | normalized RNA/DNA level without ligand (log10) ((6R,S)-folinic acid [1]) | normalized RNA/DNA level with ligand (log10) ((6R,S)-folinic acid [2])
AAGCUU | 2.01 ± 0.019 | 2.012 ± 0.0064
AAGCUG | 2.01 ± 0.0066 | 2.048 ± 0.0075
AAGCUC | 2.055 ± 0.019 | 2.054 ± 0.014
AAGCUA | 1.991 ± 0.0072 | 2 ± 0.024
GAGCGC | 2.002 ± 0.017 | 2.03 ± 0.054
GAGCGU | 1.982 ± 0.0095 | 2 ± 0.048
GAGCGG | 1.982 ± 0.011 | 2.06 ± 0.031
UAGCGC | 1.998 ± 0.018 | 2.005 ± 0.013
UAGCGA | 1.921 ± 0.018 | 2.035 ± 0.019
UAGCGU | 1.921 ± 0.0035 | 1.99 ± 0.048
GAGCAA | 1.96 ± 0.025 | 2 ± 0.049
AACAGC | 2.0178 ± 0.00095 | 2.02 ± 0.022
GAGCUC | 2.07 ± 0.011 | 2.05 ± 0.041
GAGCUU | 2.051 ± 0.011 | 2.04 ± 0.064
GAGCUG | 2.087 ± 0.0096 | 2.07 ± 0.051
CAGCGU | 1.999 ± 0.0031 | 1.99 ± 0.053
CAGCGA | 2.03 ± 0.0044 | 2.002 ± 0.0065
CAGCGC | 2.046 ± 0.016 | 2.01 ± 0.039
CAGCGG | 1.984 ± 0.0099 | 2.06 ± 0.029
CACGAC | 2.02 ± 0.023 | 2.02 ± 0.032
CACGAA | 1.956 ± 0.0025 | 1.94 ± 0.039
CACGAG | 1.917 ± 0.0095 | 2.003 ± 0.007
GAGAUG | 1.926 ± 0.0081 | 2.02 ± 0.035
GAGAUC | 2.038 ± 0.0061 | 2.001 ± 0.014

Variant | normalized RNA/DNA level without ligand (log10) ((6R,S)-folinic acid [1]) | normalized RNA/DNA level with ligand (log10) ((6R,S)-folinic acid [2])
GAGAUU | 2.017 ± 0.0046 | 2.01 ± 0.022
GAGAUA | 1.993 ± 0.011 | 2.03 ± 0.026
GAGAAU | 1.973 ± 0.0097 | 2.02 ± 0.051
CAGGAG | 1.92 ± 0.022 | 2.03 ± 0.03
CAGGAA | 1.928 ± 0.0064 | 1.99 ± 0.05
CAGACG | 2.028 ± 0.0044 | 2.009 ± 0.0054
CAGACU | 2.048 ± 0.0077 | 2.011 ± 0.0042
CAGAUU | 1.997 ± 0.01 | 2.004 ± 0.011
CAGAUC | 2.046 ± 0.013 | 2.03 ± 0.052
CAGAUG | 2.0121 ± 0.0011 | 2.026 ± 0.019
GAGCCC | 2.023 ± 0.013 | 2.02 ± 0.053
CACGUU | 2.0092 ± 0.00093 | 1.99 ± 0.038
CACGUG | 2.03 ± 0.022 | 2.05 ± 0.05
CACGUC | 2.023 ± 0.0096 | 1.987 ± 0.013
AACUUC | 2.063 ± 0.0082 | 2.039 ± 0.014
AACUUU | 2.01 ± 0.022 | 2.01 ± 0.022
UAGGAG | 1.63 ± 0.024 | 1.91 ± 0.033
AACUGC | 2.048 ± 0.015 | 2.06 ± 0.038
AACUGU | 1.97 ± 0.016 | 2.007 ± 0.02
AACGAU | 1.959 ± 0.018 | 2 ± 0.035
AACGAC | 2.017 ± 0.013 | 1.991 ± 0.019
CAGCCC | 2.077 ± 0.02 | 2.027 ± 0.013
CAGCCA | 1.9832 ± 0.0011 | 2.01 ± 0.063
CAGCCG | 2.044 ± 0.0032 | 2.053 ± 0.019

Variant | normalized RNA/DNA level without ligand (log10) ((6R,S)-folinic acid [1]) | normalized RNA/DNA level with ligand (log10) ((6R,S)-folinic acid [2])
GACUUC | 2.08 ± 0.029 | 2.064 ± 0.014
GACUUA | 1.982 ± 0.0071 | 1.99 ± 0.022
GACUUU | 1.9897 ± 4.9e-05 | 1.97 ± 0.037
UAGAUA | 1.961 ± 0.0041 | 2.01 ± 0.025
UAGAUC | 2.0543 ± 0.0014 | 2.06 ± 0.055
UAGAUU | 1.98 ± 0.0065 | 2.01 ± 0.047
GACCUU | 2.079 ± 0.013 | 2.04 ± 0.028
GACCUC | 2.06 ± 0.0084 | 2.044 ± 0.0024
GACCUA | 2.05 ± 0.0099 | 2.05 ± 0.035
GACCUG | 2.06 ± 0.023 | 2.03 ± 0.027
UAGCAC | 1.992 ± 0.0065 | 2 ± 0.036
UAGCAA | 1.918 ± 0.0043 | 1.98 ± 0.035
CAGAGU | 1.996 ± 0.0082 | 2.02 ± 0.035
CAGAGC | 2.013 ± 0.01 | 2.01 ± 0.028
CAGAGA | 1.999 ± 0.019 | 2.01 ± 0.045
CAGCAA | 1.963 ± 0.018 | 1.971 ± 0.013
CAGCAC | 2.03 ± 0.022 | 1.98 ± 0.045
CAGCAG | 1.962 ± 0.015 | 2.03 ± 0.052
UACCCA | 2.0351 ± 0.0019 | 2.02 ± 0.034
UACCCU | 2.032 ± 0.0098 | 2 ± 0.041
UACCCC | 2.03 ± 0.024 | 2.022 ± 0.017
GAGACA | 1.976 ± 0.0079 | 2.01 ± 0.031
GAGACC | 2.021 ± 0.0065 | 2.04 ± 0.057
GAGACG | 1.978 ± 0.014 | 2.031 ± 0.014

Variant | normalized RNA/DNA level without ligand (log10) ((6R,S)-folinic acid [1]) | normalized RNA/DNA level with ligand (log10) ((6R,S)-folinic acid [2])
GAGAGC | 1.945 ± 0.01 | 2.03 ± 0.042
CACUGC | 2.057 ± 0.016 | 2.05 ± 0.032
CACUGU | 2.057 ± 0.0081 | 2.056 ± 0.011
CACCCU | 2.059 ± 0.0058 | 2.04 ± 0.012
CACCCG | 2.018 ± 0.0098 | 2.01 ± 0.031
CACCCC | 2.031 ± 0.019 | 2.01 ± 0.022
CACCCA | 2.011 ± 0.017 | 2.01 ± 0.059
AACGGG | 1.892 ± 0.0076 | 2.01 ± 0.032
AACGGU | 1.96 ± 0.022 | 2 ± 0.021
AACGGA | 1.969 ± 0.019 | 2.02 ± 0.028
AACGGC | 2.058 ± 0.0083 | 2.03 ± 0.027
UACUUA | 1.9834 ± 0.00066 | 2.01 ± 0.0084
UACUUU | 2.001 ± 0.0048 | 2.03 ± 0.042
UACUUC | 2.0503 ± 0.00055 | 2.03 ± 0.042
AACAUU | 2.03 ± 0.019 | 2.02 ± 0.022
CACGGC | 2.046 ± 0.014 | 2.03 ± 0.026
CACGGG | 1.91 ± 0.0032 | 1.992 ± 0.0038
CACGGU | 1.954 ± 0.0088 | 1.95 ± 0.04
CACGGA | 1.99 ± 0.038 | 2.02 ± 0.029
GACAUC | 2.05 ± 0.034 | 2.04 ± 0.082
GACAUG | 1.925 ± 0.0021 | 1.994 ± 0.009
UACCAG | 1.862 ± 0.011 | 1.96 ± 0.025
UACCAA | 1.966 ± 0.0066 | 1.99 ± 0.02
UACCAU | 1.9686 ± 0.001 | 2 ± 0.038

Variant | normalized RNA/DNA level without ligand (log10) ((6R,S)-folinic acid [1]) | normalized RNA/DNA level with ligand (log10) ((6R,S)-folinic acid [2])
AACUAA | 1.97 ± 0.023 | 1.96 ± 0.026
AACUAU | 1.975 ± 0.0066 | 2 ± 0.037
AACUAG | 1.94 ± 0.022 | 2.02 ± 0.039
UACCUU | 2.02 ± 0.0067 | 2.046 ± 0.014
UACCUA | 2.0242 ± 0.0004 | 2.069 ± 0.019
UACAUC | 2.0657 ± 0.0019 | 2.04 ± 0.032
UACAUU | 2.005 ± 0.0053 | 1.99 ± 0.042
CACUCA | 2.013 ± 0.0028 | 2.03 ± 0.025
CACUCU | 2.057 ± 0.015 | 2.043 ± 0.018
CACUCC | 2.044 ± 0.0027 | 2.02 ± 0.04
CACUCG | 2.01 ± 0.03 | 2 ± 0.024
AACACU | 2 ± 0.032 | 2 ± 0.043
UAGAAC | 1.979 ± 0.012 | 2 ± 0.033
AAGCGU | 1.956 ± 0.0071 | 2.02 ± 0.04
AAGCGA | 1.95 ± 0.02 | 2.02 ± 0.048
AAGCGC | 2.025 ± 0.0081 | 2.03 ± 0.05
AAGCGG | 1.941 ± 0.005 | 2 ± 0.054
AACCCG | 1.99 ± 0.0042 | 2.02 ± 0.044
AACCCA | 2.033 ± 0.016 | 2.03 ± 0.022
AACCCU | 2.047 ± 0.013 | 2.04 ± 0.036
